Data taken from the supplement of paper PMC9732359.
± gives the uncertainty stated by the source.

Experiment: protein stability index of a GFP-peptide fusion (yeast GPS) (PSI 1-4); higher = more stable; sorted into four equal gates, so the index is relative within each strain
Conditions: pdr5∆
In short: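 Sequencing reads from sorted gates were used to score each peptide. The library consisted of tiled 17-residue yeast protein peptides fused downstream of GFP on a Cherry-expressing plasmid, pooled and carried in yeast. Mid-log cultures in leucine-free medium were split into four equal gates by GFP/Cherry ratio, and each gate's plasmids were PCR-amplified and Illumina-sequenced. The protein stability index adds up, over all gates, the read frequency multiplied by the gate number.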

| Sequence | protein stability index |
| --- | --- |
| QGEEEELIALNLSEARL [RPB4] | 3.53 ± 0.14 |
| QGGAMNKKSEQALDISK [SRP72] | 3.12 ± 0.058 |
| QGLAMVEKYAPDVVRSL [RRP42] | 2.47 ± 0.16 |
| QGMEGTVDLALFGSPPF [YMR129W/POM152] | 3.41 ± 0.068 |
| QHDSSANEDEEEQLDAL [CSN12] | 2.75 ± 0.21 |
| QHHVTDADKLSFNCENF [YML031W/NDC1] | 2.28 ± 0.053 |
| QIANEFNTQQGIKKHSL [YDL116W/NUP84] | 3.3 ± 0.049 |
| QIDYKLESFQAVYNKLT [RPS7A] | 2.4 ± 0.051 |
| QIGQVPLAPAPINLPPQ [SNF5] | 2.47 ± 0.081 |
| QIISNAHNKPSLFSKIK [YAR002W/NUP60] | 2.98 ± 0.093 |
| QIKEIKEVIELPVKHPE [RPT6] | 3.13 ± 0.088 |
| QILIFAADTSIVEQDKS [YJL039C/NUP192] | 2.44 ± 0.21 |
| QIMQLKKICNHPFVFEE [SNF2] | 2.38 ± 0.053 |
| QITIEPGVDVEVVVASN [RPS20] | 2.57 ± 0.099 |
| QKKILSIRLKVPPTIAQ [RPL8A] | 1.66 ± 0.037 |
| QKKNFLFKPLNKTLTLD [ARP7] | 2.45 ± 0.14 |
| QKKRVVDPFTRKEWFDI [RPS1A] | 3.1 ± 0.18 |
| QKLDILVAKLKKVKSAS [SMC4] | 2.25 ± 0.051 |
| QKLHKVKKASGEIVSIN [RPL20A] | 2.61 ± 0.057 |
| QKNYADPEKDSINATAL [SIN4] | 1.71 ± 0.047 |
| QKSSKENIENEEYVINL [ECM29] | 3.32 ± 0.086 |
| QKTVFDELCKLVTCEGS [SRP54] | 1.48 ± 0.091 |
| QKVFVRSRNGGATKIVR [DIS3] | 1.59 ± 0.11 |
| QLDSDANKLSKSHSTVS [ISW2] | 2.85 ± 0.075 |
| QLEGFESRKAFFLGYMI [RPB2] | 2.42 ± 0.075 |
| QLEYKRGEIREIEQVCK [MED7] | 1.53 ± 0.069 |

| Sequence | protein stability index |
| --- | --- |
| QLGPQTPAFNTAILQRQ [ECM29] | 1.49 ± 0.17 |
| QLIKVAVHNGDRKHVAA [RPL9B] | 2.48 ± 0.059 |
| QLILSDVDPEFYLKYVD [RET1] | 2.95 ± 0.15 |
| QLKFEGFALNSDIVFIH [BRR2] | 1.71 ± 0.061 |
| QLKTGLAAIVSTVIEEF [YGL172W/NUP49] | 2.79 ± 0.08 |
| QLKWAQNTIDDTEMKMK [YIL149C/MLP2] | 2.88 ± 0.056 |
| QLNCIDTQFTKLLDDNP [SRB8] | 2.7 ± 0.068 |
| QLNKVVDQLFEKASVLY [RPN6] | 2.06 ± 0.052 |
| QLPSKFTCSCNSLTVDG [RPN14] | 2.39 ± 0.062 |
| QLVEITEQIKMRILSND [SRB8] | 2.45 ± 0.043 |
| QLYEDLCRYEDTLSKLV [MED4] | 2.67 ± 0.16 |
| QMDGFDNLGQTKIIMAT [RPT4] | 3.55 ± 0.11 |
| QMPLNSNGGNNMLPQRQ [SNF2] | 2.79 ± 0.053 |
| QNCWSLINDSYINDVHL [SSN8] | 3.22 ± 0.069 |
| QNDTPMFKLGNFESPVL [YLR018C/POM34] | 2.48 ± 0.059 |
| QNKKNLKWVAVVPDLGH [SSN2] | 3.07 ± 0.051 |
| QNNFHVLIDLLNWFRTT [RGR1] | 2.17 ± 0.074 |
| QNNTTKFHSELQYLDKH [RPN12] | 3 ± 0.095 |
| QNPKLFQTIFSKQDLIH [SIN4] | 2.02 ± 0.046 |
| QNPLPTRFEVELEFIQS [SOH1] | 2.39 ± 0.073 |
| QNVTSETHSKKRKKEAN [ITC1] | 3.02 ± 0.075 |
| QPGYADLEHKEDCVEEF [QCR6] | 2.56 ± 0.068 |
| QPKAPRAPKVIHGQDFQ [ISW2] | 3.02 ± 0.097 |
| QPQETEEHHEEEPSRVD [RPT4] | 3.44 ± 0.1 |
| QPSKVSSNVQQPQQQLG [RTT102] | 2.88 ± 0.094 |
| QPTNFTTKRLWSEITES [MCD1] | 2.38 ± 0.066 |

| Sequence | protein stability index |
| --- | --- |
| QPYEDRPFEGLFVISTE [RRP45] | 3.12 ± 0.048 |
| QQIWKSPNFKNYLKYLE [SOH1] | 1.91 ± 0.047 |
| QQLNKQRQDFERVRLRP [SNF6] | 2.73 ± 0.079 |
| QQMIITRLKSLLKPFHV [SIR3] | 2.08 ± 0.053 |
| QQMQPPNSSANNNPLQQ [GAL11] | 2.9 ± 0.05 |
| QQQQMQQQQQQQQQQQN [SSN2] | 2.63 ± 0.098 |
| QQQQQQQQGQIPQSQQV [SNF5] | 2.63 ± 0.018 |
| QQVPPLPDELTLSYDDI [DLS1] | 2.83 ± 0.055 |
| QQWGNDFYKRDPRIAPL [FAS2] | 2 ± 0.048 |
| QRQDFERVRLRPEQLSN [SNF6] | 2.43 ± 0.062 |
| QSEDLSHAVEFFMSERS [YML103C/NUP188] | 3.37 ± 0.089 |
| QSKIDLTKKKNEEINKK [SEM1] | 3.47 ± 0.24 |
| QSNYGIYSSDAQGDPNL [NUT1] | 2.92 ± 0.065 |
| QSYFSQLKFEGFALNSD [BRR2] | 1.26 ± 0.045 |
| QTATQLLERGRLRKRVT [SMC2] | 3.04 ± 0.083 |
| QTEIKDIILGQNIKAPS [PRP8] | 3.04 ± 0.074 |
| QTQAIAQQQQLSNYPQQ [YGR119C/NUP57] | 3.15 ± 0.062 |
| QTVSNKEDAKATMENIQ [SRP54] | 3.18 ± 0.066 |
| QVARTNLDGTKAVKLRK [ROX3] | 3.13 ± 0.063 |
| QVGERIKQTFKNDLFVI [RPO21] | 2.36 ± 0.07 |
| QVGLNFELSFTGAPPYY [YMR129W/POM152] | 2.08 ± 0.061 |
| QVNQLQRILEVLGTPDQ [SSN3] | 1.69 ± 0.037 |
| QVSNFAPQVYIITKNEN [GAL11] | 1.98 ± 0.11 |
| QVVLGGTSKYLINGHRA [SMC2] | 3.19 ± 0.066 |
| QWSATWIAMRREKRDRT [PRP8] | 2.64 ± 0.081 |
| QYIRTLVSEARTLWPEF [SSN8] | 2.67 ± 0.052 |

| Sequence | protein stability index |
| --- | --- |
| RAANQGALPPDLSLIVK [CYT1] | 3 ± 0.074 |
| RAIPFRRFNSSIGRTAQ [RPL17A] | 2.87 ± 0.08 |
| RANLRKYREGQVLFQGL [POP1] | 2.31 ± 0.071 |
| RAPIYHSKFRSSSGNTW [YML031W/NDC1] | 2.34 ± 0.06 |
| RARGPMQVLTRQPVEGR [RPB2] | 2.36 ± 0.21 |
| RASKALIERYYPKLTLD [RPS17A] | 2.51 ± 0.14 |
| RAVLTPLITRHCYPRQL [RRP46] | 2.18 ± 0.037 |
| RCIGDSDNVSFEIQGVP [YMR129W/POM152] | 3.39 ± 0.085 |
| RDDGKRELLVEGYGLRD [RPO31] | 2.56 ± 0.072 |
| RDKVCKQINEARDEILP [PGD1] | 1.6 ± 0.14 |
| RDLILTEYGRKYNVNIS [PRP8] | 2.42 ± 0.098 |
| RDMIMKRNSDKVEYKIV [ITC1] | 1.83 ± 0.078 |
| RDYLVDTLKLRENLHIL [RRP6] | 3.29 ± 0.096 |
| REDIDDPLAKVNVLLQS [BRR2] | 3.04 ± 0.088 |
| REEAIGFIRGSNKFAEV [SMC3] | 2.94 ± 0.074 |
| REIHNEAESQLRAAQQQ [FAS2] | 2.36 ± 0.07 |
| RELFVMAREHAPSIIFM [RPT6] | 1.99 ± 0.085 |
| RELTKNILWRIADKTTY [SIR4] | 2.6 ± 0.065 |
| RENALYDYYALQLLPLQ [SNF2] | 2.74 ± 0.045 |
| RENLHILNEVFTNPSIV [RRP6] | 2.93 ± 0.063 |
| RENVKSKDEPVSKAVES [SIR4] | 3.73 ± 0.12 |
| REVENSVSLLNSDIANL [SMC1] | 2.59 ± 0.077 |
| RFDAQTGSDREVQRILI [RPT3] | 3.08 ± 0.14 |
| RFKMERAGVTHVLSRLS [RET1] | 1.55 ± 0.18 |
| RFNAKVSMVKRAIDSLI [CDC53] | 2.12 ± 0.074 |

Same assay, conditions: san1∆

| Sequence | protein stability index |
| --- | --- |
| QGEEEELIALNLSEARL [RPB4] | 3.22 ± 0.078 |
